According to patent US20240410900A1 (Hoffmann-La Roche, published 2024):
Positions count from the first letter of the chain named.

B1: anti-PG variant Fc-region antibody M1.3.17 (antibody, V domains shown)
VH: EVKLLESGGGLVQPGGSLKLSCAASGIDFRRYWMNWVRQAPGKGLEWIGEIDPDSSTINYTPSLKDKFIISRDNAKNTMYLQMRKVRSEDTALYYCARPYDYGAWFAYWGQGTLVTVSA
VL: QAVVTQESALTTSPGETVTLTCRSTTGAVTTSNYANWVQEKPDHLFTGLIGGTNKRAPGVPARFSGSLIGDKAALTITGAQTEDEAIYFCALWYSDHWVFGGGTKLTVL
notes: Monomeric, bivalent full-length antibody with murine variable domains; Biotinylated when used as capture antibody; also called anti-PG antibody clone 1.3.17; M1.3.17-Bi
B2: anti-PG variant Fc-region antibody M1.7.24 (monomeric, bivalent) (antibody, V domains shown)
VH: B1 VH with I27F, R30S, D52T, M79L, R84I, A97V, Y108S
VL: B1 VL with T25S, D96N
notes: Full-length Y-shaped antibody with murine variable domains; Biotinylated when used as capture antibody; also called anti-PG antibody clone 1.7.24; M1.7.24-Bi
B3: anti-AAA variant Fc-region antibody M1.6.22 (antibody, V domains shown)
VH: EVQLVESGGDLVKPGGSLKLSCAASGFTFSSYGMSWVRQTPDKRLEWVATISSGGSYIYYPDSVKGRFTISRDNAKNTLYLQMSSLKSEDTAMYYCARLGMITTGYAMDYWGQGTSVTVSS
VL: DVLMTQTPLSLPVSLGDQASISCRSSQTIVHSTGHTYLEWFLQKPGQSPKLLIYKVSNRFSGVPDRFSGSGSGTDFTLKISRVEAEDLGVYYCFQGSHVPYTFGGGTKLEIK
notes: Murine variable domains; also called M1.6.22-Bi

Columns and labels:
[1] = target: T1, anti-P-Selectin antibody (IgG4 subclass with mutations S228P/L235E); experiment: ELISA assay C, tracer FcγRI-Dig, target 3 ng/mL
T1 construct: Positions are EU numbers; also called sample 4; antibody 4

[2] = target: T2, anti-VEGF/ANG2 antibody (wild-type IgG1 subclass) (UniProt P01857-1 1-330 = IgG part); experiment: ELISA assay C, tracer FcγRI-Dig, target 3 ng/mL
T2 construct: also called sample 5; antibody 5

[3] = target: T3, anti-VEGF/ANG2 antibody (IgG1 subclass with mutations P329G/L234A/L235A/I253A/H310A/H435A); experiment: ELISA assay C, tracer FcγRI-Dig, target 6 ng/mL
T3 construct: Format of the bispecific antibody not described; Positions are EU numbers, not positions on the UniProt entry; also called sample 1; antibody 1

[4] = target: T4, anti-VEGF/ANG2 antibody (IgG1 subclass with mutations P329G/L234A/L235A); experiment: ELISA assay C, tracer FcγRI-Dig, target 6 ng/mL
T4 construct: Positions are EU numbers; also called sample 2; antibody 2

[5] = target: T5, anti-IGF-1R antibody (IgG1 subclass with mutations I253A/H310A/H435A); experiment: ELISA assay C, tracer FcγRI-Dig, target 6 ng/mL
T5 construct: Positions are EU numbers; also called sample 3; antibody 3

[6] = target: T1, anti-P-Selectin antibody (IgG4 subclass …); experiment: ELISA assay C, tracer FcγRI-Dig, target 6 ng/mL
[7] = target: T2, anti-VEGF/ANG2 antibody (wild-type IgG1 …); experiment: ELISA assay C, tracer FcγRI-Dig, target 6 ng/mL
[8] = target: T3, anti-VEGF/ANG2 antibody (IgG1 subclass …); experiment: ELISA assay C, tracer FcγRI-Dig, target 13 ng/mL
[9] = target: T3, anti-VEGF/ANG2 antibody (IgG1 subclass …); experiment: ELISA assay B, tracer M1.7.10-Dig, target 13 ng/mL
Procedure: (§1) Biotinylated anti-PG Fc-region antibody or biotinylated anti-AAA Fc-region antibody, respectively, was bound to the wells of a streptavidin-coated multi-well plate (SA-MTP) to produce a capture plate. Excess of unbound antibody was removed by washing. Sample/standard antibodies spiked in human and cynomolgus monkey serum (10% final concentration) was added to wells of the SA-MTP multi-well plate coated with the capture plate and incubated for 1 hour at room temperature. After washing, the wells were incubated with digoxygenylated anti-human kappa antibody M1.7.10 (see e.g. WO 2011/048043, incorporated herein by reference). After washing the bound digoxygenylated anti-human kappa antibody complex was incubated with a horseradish peroxidase (HRP) labelled anti-digoxygenin antibody. After another washing step, an ABTS solution was added to the wells and incubated. The product of the color reaction was measured by Elisa reader at 405 nm wavelength (reference wavelength: 490 nm). Absorbance values of each sample or standard were determined in triplicates.

[10] = target: T4, anti-VEGF/ANG2 antibody (IgG1 subclass …); experiment: ELISA assay B, tracer M1.7.10-Dig, target 13 ng/mL
Procedure: as §1

[11] = target: T5, anti-IGF-1R antibody (IgG1 subclass …); experiment: ELISA assay B, tracer M1.7.10-Dig, target 13 ng/mL
Procedure: as §1

[12] = target: T1, anti-P-Selectin antibody (IgG4 subclass …); experiment: ELISA assay B, tracer M1.7.10-Dig, target 13 ng/mL
Procedure: as §1

[13] = target: T2, anti-VEGF/ANG2 antibody (wild-type IgG1 …); experiment: ELISA assay B, tracer M1.7.10-Dig, target 13 ng/mL
Procedure: as §1

[14] = target: T3, anti-VEGF/ANG2 antibody (IgG1 subclass …); experiment: ELISA assay B, tracer M1.7.10-Dig, target 25 ng/mL
Procedure: as §1

[15] = target: T4, anti-VEGF/ANG2 antibody (IgG1 subclass …); experiment: ELISA assay B, tracer M1.7.10-Dig, target 25 ng/mL
Procedure: as §1

[16] = target: T5, anti-IGF-1R antibody (IgG1 subclass …); experiment: ELISA assay B, tracer M1.7.10-Dig, target 25 ng/mL
Procedure: as §1

[17] = target: T1, anti-P-Selectin antibody (IgG4 subclass …); experiment: ELISA assay B, tracer M1.7.10-Dig, target 25 ng/mL
Procedure: as §1

[18] = target: T2, anti-VEGF/ANG2 antibody (wild-type IgG1 …); experiment: ELISA assay B, tracer M1.7.10-Dig, target 25 ng/mL
Procedure: as §1

[19] = target: T3, anti-VEGF/ANG2 antibody (IgG1 subclass …); experiment: ELISA assay B, tracer M1.7.10-Dig, target 0 ng/mL (blank)
Procedure: as §1

[20] = target: T4, anti-VEGF/ANG2 antibody (IgG1 subclass …); experiment: as above
Procedure: as §1

[21] = target: T5, anti-IGF-1R antibody (IgG1 subclass …); experiment: as above
Procedure: as §1

[22] = target: T1, anti-P-Selectin antibody (IgG4 subclass …); experiment: as above
Procedure: as §1

[23] = target: T2, anti-VEGF/ANG2 antibody (wild-type IgG1 …); experiment: as above
Procedure: as §1

Binder | signal [OD405 nm] [1] [OD405 nm] | signal [OD405 nm] [2] [OD405 nm] | signal [OD405 nm] [3] [OD405 nm] | signal [OD405 nm] [4] [OD405 nm] | signal [OD405 nm] [5] [OD405 nm] | signal [OD405 nm] [6] [OD405 nm] | signal [OD405 nm] [7] [OD405 nm] | signal [OD405 nm] [8] [OD405 nm] | signal [OD405 nm] [9] [OD405 nm] | signal [OD405 nm] [10] [OD405 nm] | signal [OD405 nm] [11] [OD405 nm] | signal [OD405 nm] [12] [OD405 nm] | signal [OD405 nm] [13] [OD405 nm] | signal [OD405 nm] [14] [OD405 nm] | signal [OD405 nm] [15] [OD405 nm] | signal [OD405 nm] [16] [OD405 nm] | signal [OD405 nm] [17] [OD405 nm] | signal [OD405 nm] [18] [OD405 nm] | signal [OD405 nm] [19] [OD405 nm] | signal [OD405 nm] [20] [OD405 nm] | further results
B1 | 1.19 | 1.19 | 1.17 | 1.22 | 1.21 | 1.18 | 1.17 | 1.14 | 0.034 | 0.217 | 0.044 | 0.047 | 0.042 | 0.035 | 0.213 | 0.046 | 0.047 | 0.043 | 0.035 | 0.038 | signal [OD405 nm] [21]: 0.045 OD405 nm; signal [OD405 nm] [22]: 0.049 OD405 nm; signal [OD405 nm] [23]: 0.043 OD405 nm
B2 | 0.053 | 0.053 | 0.079 | 0.06 | 0.069 | 0.053 | 0.057 | 0.085 | 0.053 | 3.15 | 0.043 | 0.037 | 0.04 | 0.047 | 3.16 | 0.048 | 0.04 | 0.041 | 0.049 | 0.046 | signal [OD405 nm] [21]: 0.04 OD405 nm; signal [OD405 nm] [22]: 0.035 OD405 nm; signal [OD405 nm] [23]: 0.039 OD405 nm
B3 | 0.05 | 0.069 | 0.06 | 0.06 | 0.104 | 0.051 | 0.064 | 0.064 | 0.041 | 0.066 | 2.85 | 0.042 | 0.046 | 0.044 | 0.092 | 2.89 | 0.048 | 0.047 | 0.047 | 0.038 | signal [OD405 nm] [21]: 0.037 OD405 nm; signal [OD405 nm] [22]: 0.038 OD405 nm; signal [OD405 nm] [23]: 0.037 OD405 nm
